Data published in patent US20240182909, “Checkpoint Aptamers as Therapeutics for Cancer Treatment” (Ayass Bioscience LLC, published 2024).

Tests used:
Conditions in all cases: label: biotin
[1] = target: T1, CTLA4 (cytotoxic T-lymphocyte associated protein 4) (UniProt P16410 P16410:36-161); assay: ELONA; called R2-25 in figure legend; 5.0 uM biotinylated aptamer on immobilised CTLA4, competed with soluble protein
Description: (§1) FIGS. 3A, 3B, and 3C show the assessment of competitive specificity of CTLA4 aptamers, R2-13, R2-25, R2-63, R2-81, R3-20, and R3-56 to CTLA4 protein in presence of CTLA4, NKG2A, and PD-1 proteins. ELISA-based competition assay for the specificity of the binding of CTLA4 aptamers, R2-13, R2-25, R2-63, R2-81, R3-20, and R3-56. CTLA4 protein (5.0 ug/mL) was immobilized on a MaxiSorp plate. Biotinylated CTLA4 aptamers on 5.0 uM concentration were added in the presence of different concentrations of CTLA4, PD-1, or NKG2A proteins, respectively. The bound aptamer was detected using Streptavidin-HRP and assessed by ELISA. The absorbance of each well was monitored at 450 nm on an automatic microplate reader. The percent inhibition was calculated using the formula, Percent inhibition=[1−(Ainhibitor/Auninhibitor)]×100.

[2] = target: T2, PD-1 (UniProt Q15116 Q15116:25-170); assay: competition; PD-1 as soluble competitor; called R2-25 in figure legend
T2 sequence (Q15116 25-170, one chain of several): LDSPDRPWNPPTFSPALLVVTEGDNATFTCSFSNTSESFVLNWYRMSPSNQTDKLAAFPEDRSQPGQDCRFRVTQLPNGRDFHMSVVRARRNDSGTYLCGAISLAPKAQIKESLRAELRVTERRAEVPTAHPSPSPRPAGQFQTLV
Description: as §1

[3] = target: T3, NKG2A (UniProt P26715 P26715:94-233); assay: competition; NKG2A as soluble competitor for aptamer binding to immobilised CTLA4
T3 sequence (P26715 94-233, one chain of several): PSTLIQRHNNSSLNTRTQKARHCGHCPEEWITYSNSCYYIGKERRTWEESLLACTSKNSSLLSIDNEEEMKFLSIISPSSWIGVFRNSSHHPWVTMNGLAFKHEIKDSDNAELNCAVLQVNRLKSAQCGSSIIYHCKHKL
Description: as §1

[4] = target: T1, CTLA4 (cytotoxic T-lymphocyte …); assay: ELONA; 5.0 uM biotinylated aptamer on immobilised CTLA4 (5.0 ug/mL), competed with soluble protein
Description: as §1

[5] = target: T2, PD-1; assay: competition; PD-1 as soluble competitor
Description: as §1

[6] = target: Bovine serum albumin (BSA) (Bos taurus, UniProt P02769 P02769:25-607); assay: ELONA; BSA-coated plate
Chain of Bovine serum albumin (BSA) (P02769 25-607, one chain of several): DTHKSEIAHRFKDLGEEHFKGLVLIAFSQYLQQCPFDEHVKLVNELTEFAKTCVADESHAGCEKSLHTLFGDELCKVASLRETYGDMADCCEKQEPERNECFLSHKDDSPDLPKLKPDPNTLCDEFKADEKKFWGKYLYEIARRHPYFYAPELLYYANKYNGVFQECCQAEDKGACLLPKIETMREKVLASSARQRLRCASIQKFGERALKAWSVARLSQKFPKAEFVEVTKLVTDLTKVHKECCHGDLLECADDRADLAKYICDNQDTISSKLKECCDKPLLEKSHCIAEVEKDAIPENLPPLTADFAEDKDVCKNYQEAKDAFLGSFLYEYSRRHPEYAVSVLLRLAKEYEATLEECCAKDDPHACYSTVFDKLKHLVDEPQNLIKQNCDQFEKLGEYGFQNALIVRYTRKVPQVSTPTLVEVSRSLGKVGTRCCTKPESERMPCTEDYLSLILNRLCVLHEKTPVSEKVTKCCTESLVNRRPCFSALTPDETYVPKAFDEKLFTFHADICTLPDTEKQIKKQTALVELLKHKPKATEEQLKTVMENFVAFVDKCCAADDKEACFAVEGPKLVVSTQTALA

[7] = target: T2, PD-1; assay: competition; PD-1 as soluble competitor for aptamer binding to immobilised CTLA4
Description: as §1

[8] = target: T3, NKG2A; assay: ELONA; direct and competitive ELISA; 100-fold excess unlabelled aptamer as competitor
Description: FIGS. 2A and 2B show aptamer, R2-13, specific binding to CTLA4 and NKG2A is determined by Direct and Competitive ELISA assay. ELISA-based competition assay for the binding of the CTLA4 aptamer, R2-13, to CTLA4 protein and to NKG2A protein. CTLA4 protein and NKG2A protein were immobilized on a MaxiSorp plate and biotinylated R2-13 on different concentrations were added in the absence and presence of 100-fold excess of non-biotinylated respective R2-13. The bound aptamer was detected using Streptavidin-HRP and assessed by ELISA. CTLA4 protein was immobilized on a MaxiSorp plate and biotinylated R2-13 on different concentrations were added in the absence and presence of 100-fold excess of non-biotinylated respective R2-13. The bound aptamer was assessed by ELISA.

[9] = target: T1, CTLA4 (cytotoxic T-lymphocyte …); assay: as above

T1 sequence (P16410 36-161, one chain of several): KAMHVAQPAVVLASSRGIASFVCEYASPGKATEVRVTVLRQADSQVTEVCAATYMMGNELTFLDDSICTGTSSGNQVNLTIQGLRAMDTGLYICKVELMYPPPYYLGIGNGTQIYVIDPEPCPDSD

Row | Binder | binding result [1] | binding result [2] | binding result [3] | binding result [4] | binding result [5] | binding result [6] | binding result [7] | binding result [8] | binding result [9]
1 | GACTTCGCGGAGGTAAACTGCACGGGGGTGCCGCGAAGTC (ssDNA, deoxyuridine (dU) in place of every T) [ctla4_R3_25] | binds | no binding | binds | – | – | – | – | – | –
2 | ACTTACAACTGCGCACGCGGGACCTCCGAGAGTTGTAAGT (ssDNA, deoxyuridine (dU) in place of every T) [ctla4_R2_81] | – | – | binds | binds | no binding | – | – | – | –
3 | ACACTTTTCCCCCACCTGATCCTCAGTTCCGGAAAAGTGT (ssDNA, deoxyuridine (dU) in place of every T) [ctla4_R2_13] | – | – | – | – | – | no binding | no binding | binds | binds
4 | TTGTTGCAGGCGACGTGCGTGGGCGCACGGCCTGCAACAA (ssDNA, deoxyuridine (dU) in place of every T) [ctla4_R3_56] | – | – | binds | binds | no binding | – | – | – | –
5 | GACCTGCCGGCGGAGCTGCGTCCCGCTGCACCGGCAGGTC (ssDNA, deoxyuridine (dU) in place of every T) [ctla4_R3_20] | – | – | binds | binds | no binding | – | – | – | –
